The numbers were not newly measured in publication PMC3338619, “Ligand Binding Study of Human PEBP1/RKIP: Interaction with Nucleotides and Raf-1 Peptides Evidenced by NMR and Mass Spectrometry” (PLoS ONE, 2012), which cites them from elsewhere.

The data set deals with Raf-1 tri-phosphorylated peptide (Homo sapiens) (UniProt P04049).

On to rPEBP1 (from UniProt P31044), for which the Kd is 20 µM.

For orientation: Kd means the equilibrium constant for the complex coming apart.
